One data set has as its target T1, MaeB (Escherichia coli, UniProt P76558).
T1 construct: His-tagged from ASKA His tag collection library, overexpressed in E. coli, Ni-NTA purified, tag kept
T1 sequence (P76558 1-759): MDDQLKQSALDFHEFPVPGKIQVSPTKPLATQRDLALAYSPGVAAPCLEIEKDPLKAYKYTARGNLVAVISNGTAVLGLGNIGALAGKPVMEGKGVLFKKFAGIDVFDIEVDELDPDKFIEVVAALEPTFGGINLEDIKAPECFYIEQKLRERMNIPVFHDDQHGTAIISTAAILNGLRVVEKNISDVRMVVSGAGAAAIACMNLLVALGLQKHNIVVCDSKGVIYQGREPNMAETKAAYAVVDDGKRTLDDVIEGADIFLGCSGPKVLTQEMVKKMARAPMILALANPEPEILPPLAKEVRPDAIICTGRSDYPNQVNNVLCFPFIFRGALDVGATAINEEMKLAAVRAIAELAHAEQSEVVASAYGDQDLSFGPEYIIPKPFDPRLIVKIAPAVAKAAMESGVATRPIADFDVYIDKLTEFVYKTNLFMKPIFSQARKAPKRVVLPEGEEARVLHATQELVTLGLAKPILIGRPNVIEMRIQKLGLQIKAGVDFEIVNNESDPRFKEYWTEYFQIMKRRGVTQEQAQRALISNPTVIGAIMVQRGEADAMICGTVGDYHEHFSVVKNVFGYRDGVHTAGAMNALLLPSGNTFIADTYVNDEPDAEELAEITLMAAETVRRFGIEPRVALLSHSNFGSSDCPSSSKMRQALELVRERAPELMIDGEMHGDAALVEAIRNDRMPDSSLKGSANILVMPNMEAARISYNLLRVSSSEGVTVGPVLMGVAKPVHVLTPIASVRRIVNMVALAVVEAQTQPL
The data set is described as follows: flow-injection TOF MS, lactate formation (malolactic activity). The class given is biochemical. The note with it: NAD+, malate, pyruvate and 1 mM NADPH; 10 mM potassium phosphate pH 7.4, 2.5 mM MgCl2, 50 mM KCl, 1 mM NaHCO3, room temperature.

Substrate in data set [1]: CC(=O)C(=O)O
The data set is described as follows: purified protein. The class given is biochemical, Bacillus subtilis. The following applies: reductive carboxylation, NADH and NADPH both added at 0.2 mM, 50 mM NaHCO3, 5 mM MgCl2, 50 mM KCl, 100 mM Tris-HCl pH 7.8, 37°C.

Substrate in data set [2]: NC(=O)C1=CN([C@@H]2O[C@H](COP(=O)(O)OP(=O)(O)OC[C@H]3O[C@@H](n4cnc5c(N)ncnc54)[C@H](OP(=O)(O)O)[C@@H]3O)[C@@H](O)[C@H]2O)C=CC1
As to the kind of experiment: purified protein. The class given is biochemical, Bacillus subtilis. The note with it: reductive carboxylation, 20 mM pyruvate, 50 mM NaHCO3, 5 mM MgCl2, 50 mM KCl, 100 mM Tris-HCl pH 7.8, 37°C, varied: cofactor.

Turning to `O=C(O)C[C@H](O)C(=O)O` [malate], the “flow-injection TOF MS, lactate formation (malolactic activity)” value on MaeB was “we observed lactate production and, thus, malolactic activity by MaeB”.

B1: YtsJ (Bacillus subtilis subsp. subtilis str. 168) (protein)
chain: MSLREEALHLHKVNQGKLESKSKVEVRNAKDLSLAYSPGVAEPCKDIHEDINKVYDYTMKGNMVAVVTDGTAVLGLGNIGPEAALPVMEGKAVLFKSFAGVDAFPIALNTNDVDKIVETVKLLEPTFGGVNLEDIAAPNCFIIEERLKKETNIPVFHDDQHGTAIVTVAGLVNALKLSGKSMSSIKVVANGAGAAGIAIIKLLHHYGVRDIVMCDSKGAIYEGRPNGMNDVKNEVAKFTNQDRKDGSLKDVIVDADVFIGVSVAGALTKEMVQSMAKDPIIFAMANPNPEIMPEDAREAGASVVGTGRSDFPNQVNNVLAFPGIFRGALDVRATHINEEMKIAAVEAIASLVSEDELSADYVIPAPFDKRVAPAVAKAVAKAAMETGVARITVDPEEVAEKTRKLTIIGE
notes: His6-tagged, overexpressed in E. coli (QIAexpress), Ni-NTA purified, tag kept
For B1, the Km (commonly the substrate concentration at which the rate is half of its maximum) is 5.3 ± 1.3 mM in “purified protein [1]” and 0.8 ± 0.5 mM in “purified protein [2]”.

Values taken from article PMC8092299, “Bifunctional Malic/Malolactic Enzyme Provides a Novel Mechanism for NADPH-Balancing in Bacillus subtilis” (mBio, 2021).
